Assay results taken from patent publication US20020028202A1 (Biogen, published 2002).

Experiments:
Assay in all cases: staining of transfected COS-7 cells, FACS
[1] = biological target: T1, human gc chain mutant, NLV replaced by Ala (interdomain residues), myc-tagged, on COS-7 cells (human, UniProt P31785 23-369)
T1 construct: whole, on cells; not shown: 9 amino acid myc tag at the 5' end of the construct
T1 sequence (looked up): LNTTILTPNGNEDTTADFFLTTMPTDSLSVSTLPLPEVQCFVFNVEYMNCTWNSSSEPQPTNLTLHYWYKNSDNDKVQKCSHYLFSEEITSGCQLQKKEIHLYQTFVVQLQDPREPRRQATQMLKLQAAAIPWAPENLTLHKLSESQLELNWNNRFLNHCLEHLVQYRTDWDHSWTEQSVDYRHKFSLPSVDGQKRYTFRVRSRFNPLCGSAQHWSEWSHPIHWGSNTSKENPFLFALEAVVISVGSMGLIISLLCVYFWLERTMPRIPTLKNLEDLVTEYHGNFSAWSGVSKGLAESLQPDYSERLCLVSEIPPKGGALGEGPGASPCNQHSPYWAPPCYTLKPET
Experimental: (§1) COS-7 cells are transiently transfected with 20 ug of DNA encoding the gc chain mutant or wildtype cDNA and 180 ug of herring sperm carrier DNA. After 2-3 days, COS-7 cells are harvested and analyzed by immnunofluorescent staining with anti-gc chain mAbs. MAbs are used at 10 ug/ml in PBS-1% BSA-0.02% sodium azide and allowed 30 minutes to bind to 1×10⁶ COS-7 cells. Cells are then washed 2 times, and bound mAb is detected with PE-conjugated goat anti-mouse Fc specific antibodies. The % of positive cells staining with the anti-gc chain mAb over an irrelevant control Ig is determined for a given gc chain mutant and for wildtype gc chain. […] Data are adjusted for any differences in level of expression of a mutant vs. wildtype constructs by measuring the binding of a mAb specific for a 9 amino acid myc tag engineered at the 5′ end of each gc chain construct. […] Values reduced from 100% indicate amino acid mutations which affect mAb binding.
(§2) The value “100%” indicates no effect of mutation and lower percentages indicate greater losses in binding as a result of the sequence change.

[2] = biological target: T2, human gc chain mutant, PW replaced by Ala (interdomain residues), myc-tagged, on COS-7 cells (human, UniProt P31785 23-369)
T2 construct: whole, on cells; not shown: 9 amino acid myc tag at the 5' end of the construct
T2 sequence (looked up): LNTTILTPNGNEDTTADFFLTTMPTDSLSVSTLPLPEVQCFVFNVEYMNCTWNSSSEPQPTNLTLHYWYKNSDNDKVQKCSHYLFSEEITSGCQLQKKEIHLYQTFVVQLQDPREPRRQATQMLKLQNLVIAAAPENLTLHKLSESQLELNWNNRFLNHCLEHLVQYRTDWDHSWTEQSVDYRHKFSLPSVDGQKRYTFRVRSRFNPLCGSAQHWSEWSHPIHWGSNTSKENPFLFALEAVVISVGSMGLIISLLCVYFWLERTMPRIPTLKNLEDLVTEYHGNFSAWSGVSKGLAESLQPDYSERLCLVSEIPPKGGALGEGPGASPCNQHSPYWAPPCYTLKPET
Experimental: as §1, §2

[3] = biological target: T3, human gc chain mutant, KEI replaced by Ala (Domain 1 Loop EF), myc-tagged, on COS-7 cells (human, UniProt P31785 23-369)
T3 construct: whole, on cells; not shown: 9 amino acid myc tag at the 5' end of the construct
T3 sequence (looked up): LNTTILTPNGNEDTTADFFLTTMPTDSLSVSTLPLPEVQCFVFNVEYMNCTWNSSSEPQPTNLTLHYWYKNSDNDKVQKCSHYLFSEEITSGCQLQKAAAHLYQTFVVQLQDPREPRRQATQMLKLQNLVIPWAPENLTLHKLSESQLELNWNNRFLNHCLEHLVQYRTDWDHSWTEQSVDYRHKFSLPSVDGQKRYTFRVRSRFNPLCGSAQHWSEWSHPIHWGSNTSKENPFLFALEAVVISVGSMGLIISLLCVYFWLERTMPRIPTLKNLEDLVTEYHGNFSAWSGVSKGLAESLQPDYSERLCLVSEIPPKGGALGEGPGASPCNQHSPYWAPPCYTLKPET
Experimental: as §1, §2

[4] = biological target: T4, human gc chain mutant, LQN replaced by Ala (interdomain residues), myc-tagged, on COS-7 cells (human, UniProt P31785 23-369)
T4 construct: whole, on cells; not shown: 9 amino acid myc tag at the 5' end of the construct
T4 sequence (looked up): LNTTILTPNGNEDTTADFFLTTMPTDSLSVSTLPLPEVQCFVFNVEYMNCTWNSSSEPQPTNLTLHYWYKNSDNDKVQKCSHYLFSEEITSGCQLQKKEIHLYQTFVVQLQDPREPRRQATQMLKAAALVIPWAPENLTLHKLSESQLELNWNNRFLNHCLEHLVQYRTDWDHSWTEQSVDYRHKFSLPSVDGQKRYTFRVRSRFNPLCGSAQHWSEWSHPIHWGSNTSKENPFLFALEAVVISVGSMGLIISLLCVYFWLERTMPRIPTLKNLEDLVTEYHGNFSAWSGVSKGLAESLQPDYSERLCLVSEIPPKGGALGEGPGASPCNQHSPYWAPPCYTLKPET
Experimental: as §1, §2

[5] = biological target: T5, human gc chain mutant, LNH replaced by Ala (Domain 2 Loop BC), myc-tagged, on COS-7 cells (human, UniProt P31785 23-369)
T5 construct: whole, on cells; not shown: 9 amino acid myc tag at the 5' end of the construct
T5 sequence (looked up): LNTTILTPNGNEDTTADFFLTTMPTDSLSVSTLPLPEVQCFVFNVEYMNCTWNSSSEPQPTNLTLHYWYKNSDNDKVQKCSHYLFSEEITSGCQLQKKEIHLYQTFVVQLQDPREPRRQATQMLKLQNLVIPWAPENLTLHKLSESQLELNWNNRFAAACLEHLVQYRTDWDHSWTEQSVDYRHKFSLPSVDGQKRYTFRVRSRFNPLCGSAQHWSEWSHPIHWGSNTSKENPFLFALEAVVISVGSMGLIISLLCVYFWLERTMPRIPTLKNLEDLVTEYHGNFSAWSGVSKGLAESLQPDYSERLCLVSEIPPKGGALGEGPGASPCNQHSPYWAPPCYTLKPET
Experimental: as §1, §2

[6] = biological target: T6, human gc chain mutant, SDN replaced by Ala (Domain 1 Loop CC), myc-tagged, on COS-7 cells (human, UniProt P31785 23-369)
T6 construct: whole, on cells; not shown: 9 amino acid myc tag at the 5' end of the construct
T6 sequence (looked up): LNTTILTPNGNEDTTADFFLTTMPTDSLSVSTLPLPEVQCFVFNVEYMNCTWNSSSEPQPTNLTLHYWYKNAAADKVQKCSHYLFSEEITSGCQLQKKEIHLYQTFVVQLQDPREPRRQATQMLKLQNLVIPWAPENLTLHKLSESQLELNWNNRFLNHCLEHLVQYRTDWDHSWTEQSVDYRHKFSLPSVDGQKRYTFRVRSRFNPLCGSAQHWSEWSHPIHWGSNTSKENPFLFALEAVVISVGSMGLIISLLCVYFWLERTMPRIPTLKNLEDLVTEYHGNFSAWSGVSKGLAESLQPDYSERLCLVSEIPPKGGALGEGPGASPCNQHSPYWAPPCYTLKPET
Experimental: as §1, §2

- % binding to mutant gc chain/wildtype gc chain [1]: 0%
- % binding to mutant gc chain/wildtype gc chain [2]: 73%
- % binding to mutant gc chain/wildtype gc chain [3]: 2%
- % binding to mutant gc chain/wildtype gc chain [4]: 4%
- % binding to mutant gc chain/wildtype gc chain [5]: 88%
- % binding to mutant gc chain/wildtype gc chain [6]: 68%
B1: CP.B8 monoclonal antibody (murine anti-human gc chain, hybridoma ATCC HB-12107) (antibody, V domains shown)
VH: LQESGPGLVAPSQSLSITCTVSGFSLTSYGVHWVRQPPGKGLEWLGVIWAGGSTNYNSALMSRLNINRDNSKSQIFLKMNSLQTDDTAIYYCAREGSTVDSMDYWGQGTTVT
VL: DIVMTQSHKFMSTSVGDSITITCKASQDVTTAVAWYQQKPGQSPKLLIYWASTRHTGVPDRFTGSGSGTDYTLTISSVQAEDLALYYCQQHYITPWTFGGGTKLEI
notes: Used unconjugated and biotin-conjugated; also called CP.B8 mAb; mAb CP.B8
